# Source: IntAct's records for PubMed 17213653
# B1: Protein RCR1 (Saccharomyces cerevisiae), P38212 (parent)
# chain: MGLISYENEAINEVKKADNHHVSKFVTSYYGPSSSSWQSGIWILFVLFVAAVILIILFTFVANRRRRRMGRAPIRGTAWLTPPSYRQSQQQYTGTVQQRTDDYVPEYTETANEHDLGYYDQRGEFHPNDKAAYVAPPPLVQECSSESVNSLERPPAAVVHQANSLDTDYGLTRPSNGRVPAVSDTVEQLERLPGGTTTQEINPPERAKVNARS
# partner: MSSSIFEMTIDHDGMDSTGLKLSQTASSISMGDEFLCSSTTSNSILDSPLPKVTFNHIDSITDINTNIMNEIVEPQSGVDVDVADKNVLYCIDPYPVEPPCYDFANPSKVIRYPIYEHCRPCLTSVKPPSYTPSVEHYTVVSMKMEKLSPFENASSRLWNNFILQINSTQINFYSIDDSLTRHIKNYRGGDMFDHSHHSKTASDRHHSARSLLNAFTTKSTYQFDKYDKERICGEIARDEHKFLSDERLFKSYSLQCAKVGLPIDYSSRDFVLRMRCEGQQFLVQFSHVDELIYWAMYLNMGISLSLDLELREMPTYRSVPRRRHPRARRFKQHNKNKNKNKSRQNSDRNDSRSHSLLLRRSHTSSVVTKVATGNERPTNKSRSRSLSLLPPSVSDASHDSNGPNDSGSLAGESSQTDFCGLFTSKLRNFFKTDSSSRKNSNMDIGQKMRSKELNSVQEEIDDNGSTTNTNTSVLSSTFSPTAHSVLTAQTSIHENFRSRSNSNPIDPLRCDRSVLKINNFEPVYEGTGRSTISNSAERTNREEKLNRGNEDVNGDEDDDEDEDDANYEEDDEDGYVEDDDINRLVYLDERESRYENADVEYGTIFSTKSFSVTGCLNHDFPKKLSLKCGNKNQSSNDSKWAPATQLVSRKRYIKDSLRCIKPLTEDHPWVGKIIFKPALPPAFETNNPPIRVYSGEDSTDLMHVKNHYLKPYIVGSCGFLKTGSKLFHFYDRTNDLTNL
# B2: Protein RCR1 (Saccharomyces cerevisiae), P38212 (parent)
# chain: B1 chain
# Variants of: B1
# Conditions: with yno4_yeast yno4, P53907
row,effect of a mutation on the interaction,Variant
1,disrupting interaction,MGLISYENEAINEVKKADNHHVSKFVTSYYGPSSSSWQSGIWILFVLFVAAVILIILFTFVANRRRRRMGRAPIRGTAWLTQASYRQSQQQYTGTVQQRTDDYVPEYTETANEHDLGYYDQRGEFHPNDKAAYVAPPPLVQECSSESVNSLERPPAAVVHQANSLDTDYGLTRPSNGRVPAVSDTVEQLERLPGGTTTQEINPPERAKVNARS [P82Q;P83A]

# Variants of: B2
# Conditions: with rsp5_yeast RSP5, P39940
# Sequence of rsp5_yeast RSP5, P39940 (P39940 whole entry): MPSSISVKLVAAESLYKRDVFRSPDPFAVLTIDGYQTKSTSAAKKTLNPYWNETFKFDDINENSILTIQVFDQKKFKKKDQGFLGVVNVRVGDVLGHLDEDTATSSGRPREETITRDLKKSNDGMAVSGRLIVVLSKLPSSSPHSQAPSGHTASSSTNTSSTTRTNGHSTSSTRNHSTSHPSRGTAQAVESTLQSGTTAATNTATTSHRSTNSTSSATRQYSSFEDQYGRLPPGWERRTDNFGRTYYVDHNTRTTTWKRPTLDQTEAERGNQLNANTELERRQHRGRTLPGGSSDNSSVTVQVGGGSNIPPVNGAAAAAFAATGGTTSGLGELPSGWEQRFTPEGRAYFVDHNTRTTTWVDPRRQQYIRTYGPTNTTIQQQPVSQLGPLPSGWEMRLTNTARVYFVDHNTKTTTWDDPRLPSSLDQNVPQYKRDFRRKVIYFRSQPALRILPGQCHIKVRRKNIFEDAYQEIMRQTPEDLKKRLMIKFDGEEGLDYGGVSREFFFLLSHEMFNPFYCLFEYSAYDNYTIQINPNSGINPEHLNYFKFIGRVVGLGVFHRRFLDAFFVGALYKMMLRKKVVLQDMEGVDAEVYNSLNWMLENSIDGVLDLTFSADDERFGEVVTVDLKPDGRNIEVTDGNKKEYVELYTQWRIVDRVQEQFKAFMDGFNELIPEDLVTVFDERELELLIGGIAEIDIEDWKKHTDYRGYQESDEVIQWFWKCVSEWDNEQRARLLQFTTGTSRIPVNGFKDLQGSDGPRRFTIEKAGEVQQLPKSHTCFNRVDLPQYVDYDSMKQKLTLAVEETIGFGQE
row,effect of a mutation on the interaction,Variant
1,disrupting interaction,MGLISYENEAINEVKKADNHHVSKFVTSYYGPSSSSWQSGIWILFVLFVAAVILIILFTFVANRRRRRMGRAPIRGTAWLTQASYRQSQQQYTGTVQQRTDDYVAEYTETANEHDLGYYDQRGEFHPNDKAAYVAPPPLVQECSSESVNSLERPPAAVVHQANSLDTDYGLTRPSNGRVPAVSDTVEQLERLPGGTTTQEINPPERAKVNARS [P82Q;P83A;P105A]
2,decreasing interaction,MGLISYENEAINEVKKADNHHVSKFVTSYYGPSSSSWQSGIWILFVLFVAAVILIILFTFVANRRRRRMGRAPIRGTAWLTPPSYRQSQQQYTGTVQQRTDDYVAEYTETANEHDLGYYDQRGEFHPNDKAAYVAPPPLVQECSSESVNSLERPPAAVVHQANSLDTDYGLTRPSNGRVPAVSDTVEQLERLPGGTTTQEINPPERAKVNARS [P105A]

# Variants of: B2
# Conditions: with rsp5_yeast RSP5, P39940
# Remark: another data set of the same source
row,effect of a mutation on the interaction,Variant
1,decreasing interaction,MGLISYENEAINEVKKADNHHVSKFVTSYYGPSSSSWQSGIWILFVLFVAAVILIILFTFVANRRRRRMGRAPIRGTAWLTQASYRQSQQQYTGTVQQRTDDYVPEYTETANEHDLGYYDQRGEFHPNDKAAYVAPPPLVQECSSESVNSLERPPAAVVHQANSLDTDYGLTRPSNGRVPAVSDTVEQLERLPGGTTTQEINPPERAKVNARS [P82Q;P83A]
2,disrupting interaction,MGLISYENEAINEVKKADNHHVSKFVTSYYGPSSSSWQSGIWILFVLFVAAVILIILFTFVANRRRRRMGRAPIRGTAWLTPPSYRQSQQQYTGTVQQRTDDYVAEYTETANEHDLGYYDQRGEFHPNDKAAYVAPPPLVQECSSESVNSLERPPAAVVHQANSLDTDYGLTRPSNGRVPAVSDTVEQLERLPGGTTTQEINPPERAKVNARS [P105A]
